Results reported in US20260048120A1.

Target: Fas receptor (Fas, CD95) on human T cells (human) (UniProt P25445)
Assay: cell-based or functional assay

UniProt P25445, sequence (P25445 26-335): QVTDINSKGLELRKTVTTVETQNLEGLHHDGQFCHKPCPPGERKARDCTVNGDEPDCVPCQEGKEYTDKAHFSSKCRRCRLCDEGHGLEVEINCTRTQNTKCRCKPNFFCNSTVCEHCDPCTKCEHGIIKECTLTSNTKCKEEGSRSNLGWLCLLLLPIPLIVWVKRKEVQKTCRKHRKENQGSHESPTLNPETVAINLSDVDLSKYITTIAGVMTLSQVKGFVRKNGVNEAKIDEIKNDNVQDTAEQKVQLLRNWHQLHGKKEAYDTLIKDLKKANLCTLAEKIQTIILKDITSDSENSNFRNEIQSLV

share of CTV-labeled SPPL3-KO primary T cells in a 1:1 mix with CFSE-labeled NT-KO primary T cells after 16 h of 500 ng/mL FasL (49.2% without FasL): 75.3%
Substance: recombinant human FasL (BioLegend) (from UniProt P48023 134-281) (ligand)
cell survival rate (Annexin V- & DAPI-) after about 16 h of 100 ng/mL FasL, SPPL3-KO Jurkat T cells: 63.1% | cell survival rate (Annexin V- & DAPI-) after about 16 h of 100 ng/mL FasL, control (NT-KO) Jurkat T cells: 25.7% | cell survival rate of the Cas9+ sgRNA-iBAR Jurkat T cell library after the first round of 10 ng/ml FasL: 4% | cell survival rate of the Cas9+ sgRNA-iBAR Jurkat T cell library after the second round of 10 ng/ml FasL: 44.8% | cell survival rate of the Cas9+ sgRNA-iBAR Jurkat T cell library after the third round of 10 ng/ml FasL: 55.5%
